Results published in patent publication US11534528B2, “Sterilization of self-assembling peptides by irradiation” (3-D Matrix, Ltd., priority 2020, dated 2022).
Where “and” joins values, the source holds several entries; their conditions need not be identical. Equal values may be shown once.

Legend:
[1] = pH of peptide solution before and after irradiation; assay type: physicochemical
Method: (§1) Samples were irradiated with gamma rays at 23, 25, 28 and 40 kGy with VPTrad Gammacell 220® High Dose Rate Co-60 Irradiator. In some embodiments, the run dose rate and duration time for 40 kGy irradiation were 6.30 kGy/hr and 6 hours 20 minutes 58 seconds, respectively. In other embodiments, the run dose rate and duration time for 28 kGy irradiation were 4.40 kGy/hr and 6 hours 22 minutes 31 seconds, respectively. In other embodiments, the run dose rate and duration time for 25 kGy irradiation were 6.58 kGy/hr and 3 hours 47 minutes 42 seconds, respectively. In other embodiments, the run dose rate and duration time for 23 kGy irradiation were 6.58 kGy/hr and 3 hours 29 minutes 29 seconds, respectively.
(§2) In other embodiments, samples were irradiated with X-ray at 25 kGy and 40 kGy with a Mevex accelerator (10 MeV, 20 kW).
(§3) In other embodiments, samples were irradiated with e-beam at 25 and 40 kGy with a Mevex accelerator (10 MeV, 20 kW).
(§4) Methods and test results: The appearance of PuraStat® was observed after each test. The pH of PuraStat® was tested using an Accumet AB15 pH meter (Fisher Scientific). HPLC tests were performed to evaluate the major peptide content after irradiation tests. Agilent HPLC 1100 (Agilent Technologies) was used for this study. Column temperature was kept at 25° C.

[2] = Mass spectrometry test for degradation of the peptides; assay type: physicochemical
Method: (§5) Mass spectrometry tests were carried out to investigate the degradation of the peptides after irradiation sterilization. An Agilent LC/MSD ion trap mass spectrometer was used for this study. The sample solutions were prepared as described above for the HPLC samples. Each sample was injected at 9 μL/min with a syringe pump. Each mass spectrum was recorded for 1 minute.
as §5, with “sterilization.” for “sterilization. An”, “Mass” for “Each mass”, “minute. The molecular weight of PuraStat® (Ac-(RADA)4-NH2) (SEQ ID NO:1) is 1712, which matches its calculated molecular weight from the major three peaks at m/3=572, m/2=857, and m=1713 in all the spectra of control and irradiated PuraStat® samples.” for “minute.”

[3] = Appearance of peptide solution before and after irradiation; assay type: physicochemical; conditions: for appearance and pH, summary: after gamma, X-ray and e-beam irradiation at around 25~40 kGy
Method: as §1, §2, §3, §4

[4] = HPLC test for major peptide content; assay type: physicochemical; conditions: N = 3, mean ± SD
Method: HPLC tests were performed to evaluate the major peptide content after irradiation tests. An Agilent HPLC 1100 (Agilent Technologies) was used for this study. The column temperature was kept at 25° C.
For RADA16 (SEQ ID NO:1) samples, solvent A was water with 0.1% TFA and solvent B was 80% acetonitrile with 0.1% TFA. Gradient of solvent B was controlled from 10% to 40% in 20 min and 40% for another 5 min at 25° C. Agilent Zorbax 300SB-C18 column (4.6 mm×250 mm, 5 μm, 300 Å) was used for this test. PuraStat® (RADA16 (SEQ ID NO:1) 2.5%) (40 mg) was mixed with 10 μL of DH2O and the mixture was vortexed. The mixture was further mixed with 500 μL of formic acid and vortexed. This mixture was then mixed with DH2O (4,450 μL) and vortexed. 20 μL samples were injected using an Agilent autosampler.
For IEIK13 (SEQ ID NO:3) samples, solvent A was water with 0.1% TFA and solvent B was 90% Acetonitrile with 0.1% TFA. The gradient of solvent B was controlled from 20% to 43% in 8 min, from 43% to 70% between 8 and 9.5 min, and from 70% to 95% between 9.5 and 30 min, and 95% for another 5 min at 25° C. An Agilent PLRP-S column (4.6 mm×250 mm, 8 μm, 300 Å) was used for this test. A 1.3% solution of IEIK13 (SEQ ID NO:3) was diluted with water with 0.1% TFA to 0.075% and the mixture was vortexed. 35 μL samples were injected using an Agilent autosampler.
For QLEL12 (SEQ ID NO:4) samples, solvent A was water and solvent B was 80% acetonitrile. The gradient of solvent B was controlled from 20% to 80% in 15 min and 80% for another 7 min at 25° C. An Agilent PLRP-S column (4.6 mm×250 mm, 8 μm, 300 Å) was used for this test. 0.15% w/v of QLEL12 (SEQ ID NO:4) solution was diluted to 0.01% with DH2O and vortexed. 50 μL samples were injected using an Agilent autosampler.
as §4
Solvent A was water with 0.1% TFA and solvent B was 80% Acetonitrile with 0.1% TFA. Gradient of solvent B was controlled from 10% to 40% in 20 min and 40% for another 5 min at 25° C. Agilent Zorbax 300SB-C18 column (4.6 mm×250 mm, 5 μm, 300 Å) was used for this test. PuraStat® (RADA16 (SEQ ID NO:1) 2.5%) (40 mg) were mixed with 10 μL of DH2O and 500 μL of formic acid and vortexed. And the mixture was mixed with DH2O (4,450 μL) and vortexed. 20 μL of samples were injected using an Agilent autosampler.
Agilent HPLC 1100 (Agilent Technologies) was used for this study. Column temperature was kept at 25° C. Agilent Zorbax 300SB-C18 column (4.6 mm×250 mm, […], 300 Å) was used for this test. Solvent A was water with 0.1% TFA and solvent B was 80% Acetonitrile with 0.1% TFA. Gradient of solvent B was controlled from 10% to 40% in 20 min and 40% for another 5 min at 25° C. PuraStat® (40 mg) was mixed with 10 μL of DH2O and 500 μL of formic acid and vortexed, and the mixture was mixed with DH2O (4,450 μL) and vortexed. […] of samples were injected using an Agilent autosampler.

[5] = RADA16 in solution; cited from earlier work
[6] = after gamma, X-ray or e-beam irradiation

Substance	pH ([1]; X-ray irradiation at 25 kGy)	pH ([1]; X-ray irradiation at 40 kGy)	pH ([1]; control, not irradiated)	pH ([1]; e-beam irradiation at 25 kGy)	pH ([1]; e-beam irradiation at 40 kGy)	pH ([1]; gamma irradiation at 40 kGy)	degradation by mass spectrometry analysis [2, 6]	Appearance ([3]; X-ray irradiation at 25 kGy)	Appearance ([3]; X-ray irradiation at 40 kGy)	appearance and pH, summary [3]	Appearance ([3]; control, not irradiated)	Appearance ([3]; e-beam irradiation at 25 kGy)	Appearance ([3]; e-beam irradiation at 40 kGy)	Appearance ([3]; gamma irradiation at 40 kGy)	Major peptide content (%) ([4]; X-ray irradiation at 25 kGy)	Major peptide content (%) ([4]; X-ray irradiation at 40 kGy)	Major peptide content (%) ([4]; control, not irradiated)	Major peptide content (%) ([4]; e-beam irradiation at 25 kGy)	Major peptide content (%) ([4]; e-beam irradiation at 40 kGy)	Major peptide content (%) ([4]; gamma irradiation at 40 kGy)	also measured
Ac-IEIKIEIKIEIKI-NH2 [IEIK13]	3.0	3.0	3.0	3.0	3.0	3.0	only insubstantially degraded	Clear and viscous	Clear and viscous	remained unchanged	Clear and viscous	Clear and viscous	Clear and viscous	Clear and viscous	99.8% and 99.8 ± 0.1%	99.9% and 99.9 ± 0.1%	99.6% and 99.6 ± 0.0%	99.6% and 99.6 ± 0.2%	99.8% and 99.8 ± 0.1%	99.8% and 99.8 ± 0.2%	pH ([1]; gamma irradiation at 28 kGy): 3.0; Appearance ([3]; gamma irradiation at 28 kGy): Clear and viscous
Ac-RADARADARADARADA-NH2 [RADA16]							not degraded			remained unchanged					73.8%	71.9%	78.3%	76.0%	70.0%	69.7%	degradation on autoclaving [5]: complete thermal degradation; degradation by mass spectrometry analysis ([2]; autoclave treatment (121° C. for 20 min)): completely degraded; Major peptide content (%) ([4]; gamma irradiation at 23 kGy): 75.5%; Major peptide content (%) ([4]; gamma irradiation at 25 kGy): 74.6%; Major peptide content (%) ([4]; gamma irradiation at 28 kGy): 68.5%
Ac-QLELQLELQLEL-NH2 [QLEL12, self-assembling peptide, degraded by irradiation]	6.3	5.9	7.0	6.6	6.5	5.9	significantly degraded	Clear and watery	Clear and watery		Clear and viscous	Clear and watery	Clear and watery	Clear and watery	57.0% and 57.0 ± 4.9 %	47.3% and 47.3 ± 1.3 %	90.5% and 90.5 ± 1.3%	51.9% and 51.9 ± 7.3 %	55.6% and 55.6 ± 3.0 %	40.7% and 40.7 ± 3.1 %	pH ([1]; gamma irradiation at 23 kGy): 6.7; pH ([1]; gamma irradiation at 25 kGy): 6.5; Appearance ([3]; gamma irradiation at 23 kGy): Clear and watery; Appearance ([3]; gamma irradiation at 25 kGy): Clear and watery
Ac-KLDLKLDLKLDL-NH2 [KLD12, self-assembling peptide]	2.2	2.2	2.2	2.2	2.2	2.2		Clear and viscous	Clear and viscous	remained unchanged	Clear and viscous	Clear and viscous	Clear and viscous	Clear and viscous							
